This test deals with UNC-119 tagged with the C-terminal fragment of Venus (C. elegans) (UniProt Q10658). Put plainly: split reporter (BiFC, NanoBiT); BiFC in vivo in transgenic C. elegans (AWC neurons); ODR-3 tagged with VN, partner tagged with VC; read-out is the percentage of animals showing Venus fluorescence.
Sequence of UniProt Q10658 (Q10658 whole entry, the tested form may be a part): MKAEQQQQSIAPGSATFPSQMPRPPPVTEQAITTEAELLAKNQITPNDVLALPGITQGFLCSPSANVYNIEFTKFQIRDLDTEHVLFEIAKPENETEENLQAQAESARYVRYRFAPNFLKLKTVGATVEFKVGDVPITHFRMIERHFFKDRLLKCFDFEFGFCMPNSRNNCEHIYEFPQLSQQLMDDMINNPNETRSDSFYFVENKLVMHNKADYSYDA

For the substance “ODR-3^A328P tagged with the N-terminal Venus fragment (from UniProt Q18434 1-356) (natural protein)”, the percent of animals with BiFC worked out at 51%.

Turning to “ODR-3^WT tagged with the N-terminal Venus fragment (from UniProt Q18434 1-356) (natural protein)”, the percent of animals with BiFC was 81%.

The record behind these values is PMC12693566.
